Assay results reported in IntAct's records for PubMed 16452984.

B1: Rap guanine nucleotide exchange factor 4 (Mus musculus), Q9EQZ6-3 (parent)
chain: MVAAHAAHSQSSAEWIACLDKRPLERSSEDVDIIFTRLKGVKAFEKFHPNLLRQICLCGYYENLEKGITLFRQGDIGTNWYAVLAGSLDVKVSETSSHQDAVTICTLGIGTAFGESILDNTPRHATIVTRESSELLRIEQEDFKALWEKYRQYMAGLLAPPYGVMETGSNNDRIPDKENVPSEKILRAGKILRIAILSRAPHMIRDRKYHLKTYRQCCVGTELVDWMIQQTSCVHSRTQAVGMWQVLLEDGVLNHVDQERHFQDKYLFYRFLDDEREDAPLPTEEEKKECDEELQDTMLLLSQMGPDAHMRMILRKPPGQRTVDDLEIIYDELLHIKALSHLSTTVKRELAGVLIFESHAKGGTVLFNQGEEGTSWYIILKGSVNVVIYGKGVVCTLHEGDDFGKLALVNDAPRAASIVLREDNCHFLRVDKEDFNRILRDVEANTVRLKEHDQDVLVLEKVPAGNRAANQGNSQPQQKYTVMSGTPEKILEHFLETIRLEPSLNEATDSVLNDFVMMHCVFMPNTQLCPALVAHYHAQPSQGTEQERMDYALNNKRRVIRLVLQWAAMYGDLLQEDDVAMAFLEEFYVSVSDDARMMAAFKEQLPELEKIVKQISEDAKAPQKKHKVLLQQFNTGDERAQKRQPIRGSDEVLFKVYCIDHTYTTIRVPVAASVKEVISAVADKLGSGEGLIIVKMNSGGEKVVLKSNDVSVFTTLTINGRLFACPREQFDSLTPLPEQEGPTTGTVGTFELMSSKDLAYQMTTYDWELFNCVHELELIYHTFGRHNFKKTTANLDLFLRRFNEIQFWVVTEVCLCSQLSKRVQLLKKFIKIAAHCKEYKNLNSFFAIVMGLSNVAVSRLALTWEKLPSKFKKFYAEFESLMDPSRNHRAYRLTAAKLEPPLIPFMPLLIKDMTFTHEGNKTFIDNLVNFEKMRMIANTARTVRYYRSQPFNPDAAQANKNHQDVRSYVRQLNVIDNQRTLSQMSHRLEPRRP

Variants of: B1
Settings: with rap1b_human RAP1B

| Variant | effect of a mutation on the interaction |
| --- | --- |
| H452A | decreasing interaction strength |
| R886A | decreasing interaction strength |
